Measured values taken from patent publication US20210206856A1 (PANDION OPERATIONS, published 2021).
Like-named read-outs stand apart in the source and are kept apart here.

Legend:
[1] = target: T1, human MAdCAM expressed on cells (human, UniProt Q13477 19-382); assay: cell binding
T1 construct: whole, on cells; also called MADCAM1
T1 sequence (looked up): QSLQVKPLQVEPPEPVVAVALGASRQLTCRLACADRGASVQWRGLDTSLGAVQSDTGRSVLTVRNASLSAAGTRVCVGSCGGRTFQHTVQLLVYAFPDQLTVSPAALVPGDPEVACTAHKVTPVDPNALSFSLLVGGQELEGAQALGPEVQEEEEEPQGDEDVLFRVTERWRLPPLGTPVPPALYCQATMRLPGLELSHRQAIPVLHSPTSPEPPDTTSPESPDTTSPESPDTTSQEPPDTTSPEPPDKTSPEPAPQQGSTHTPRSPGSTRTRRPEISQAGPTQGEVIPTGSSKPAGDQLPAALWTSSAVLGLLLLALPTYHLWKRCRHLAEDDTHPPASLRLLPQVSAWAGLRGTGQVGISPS

[2] = target: T2, mouse MAdCAM expressed on cells (mouse, UniProt Q61826 22-405); assay: cell binding
T2 construct: whole, on cells
T2 sequence (looked up): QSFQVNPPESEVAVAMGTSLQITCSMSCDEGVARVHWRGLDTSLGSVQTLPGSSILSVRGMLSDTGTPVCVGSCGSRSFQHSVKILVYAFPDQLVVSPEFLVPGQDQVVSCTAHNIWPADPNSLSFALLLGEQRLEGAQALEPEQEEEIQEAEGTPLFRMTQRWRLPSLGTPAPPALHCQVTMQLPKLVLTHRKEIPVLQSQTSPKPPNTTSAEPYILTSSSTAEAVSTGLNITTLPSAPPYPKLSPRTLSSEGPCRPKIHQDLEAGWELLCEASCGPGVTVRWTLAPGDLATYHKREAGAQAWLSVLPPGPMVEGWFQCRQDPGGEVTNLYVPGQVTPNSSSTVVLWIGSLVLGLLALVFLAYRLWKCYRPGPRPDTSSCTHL

[3] = target: T1, human MAdCAM expressed on cells; assay: cell binding; remark: listed apart in the source
[4] = target: T2, mouse MAdCAM expressed on cells; assay: cell binding; remark: listed apart in the source
[5] = target: T3, recombinant mouse MAdCAM-1 (mouse, UniProt Q61826 22-365, limits assumed); assay: Octet
T3 construct: also called mMAdCAM-1; mouse MAdCAM-Fc
T3 sequence (looked up): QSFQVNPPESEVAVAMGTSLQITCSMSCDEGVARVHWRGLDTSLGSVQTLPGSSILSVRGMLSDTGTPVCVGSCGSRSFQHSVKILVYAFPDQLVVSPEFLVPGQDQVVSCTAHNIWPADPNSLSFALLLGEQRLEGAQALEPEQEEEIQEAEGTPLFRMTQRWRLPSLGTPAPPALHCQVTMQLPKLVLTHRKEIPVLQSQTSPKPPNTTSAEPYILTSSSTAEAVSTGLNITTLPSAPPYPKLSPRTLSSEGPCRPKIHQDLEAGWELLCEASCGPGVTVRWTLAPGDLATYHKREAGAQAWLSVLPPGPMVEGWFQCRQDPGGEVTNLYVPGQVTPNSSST

Binder | binding result [1] | binding result [2] | binding result [3] | binding result [4] | binding result [5]
MAdCAM Antibody Table 1 Clone 60 (scFv) scFv: EVQLLESGGGLVQPGGSLRLSCAASGFTFDDYTMHWVRQAPGKGLEWVSDISGSGGSTYYADSVKGRFTISRDNSKNTLYLQMNSLRAEDTAVYYCAKDVVVAGTPLHFDYWGQGTLVTVSSGGGGSGGGGSGGGGSGGGGSDIQMTQSPSSLSASVGDRVTITCQASQDISNYLNWYQQKPGKAPKLLIYAASYLQSGVPSRFSGSGSGTDFTLTISSLQPEDFATYYCQQAHNYPITFGQGTRLEIK | binds | binds | – | – | –
MAdCAM Antibody Table 1 Clone 61 (scFv) scFv: EVQLLESGGGLVQPGGSLRLSCAASEFTFSNAWMSWVRQAPGKGLEWVASISSTSAYIDYADSVKGRFTISRDNSKNTLYLQMNSLRAEDTAVYYCAREVVGATTFDYWGQGTLVTVSSGGGGSGGGGSGGGGSGGGGSDIQMTQSPSSLSASVGDRVTITCRASQSISTWLAWYQQKPGKAPKLLIYAASSLQSGVPSRFSGSGSGTDFTLTISSLQPEDFATYYCQQANAFPPTFGQGTRLEIK | binds | binds | – | – | –
MAdCAM Antibody Table 1 Clone 63 (scFv) scFv: EVQLLESGGGLVKPGGSLRLSCAASGFTFDDYAMHWVRQAPGKGLEWVASITSSSAFIDYAASVKGRFTISRDDSKNTLYLQMNSLKTEDTAVYYCARERVDWNSYFDLWGRGTLVTVSSGGGGSGGGGSGGGGSGGGGSEIVMTQSPATLSVSPGERATLSCRASQGISNSYLAWYQQKPGQAPRLLIYGASTRATGIPARFSGSGSGTEFTLTISSLQSEDFAVYYCQQYYTYPPTFGPGTKVDIK | binds | binds | – | – | –
MAdCAM Antibody Table 1 Clone 64 (scFv) scFv: EVQLLESGGGLVKPGGSLRLSCAASGFAFSSHWMHWVRQAPGKGLEWVAGTSGSGESRDYADFVKGRFTISRDDSKNTLYLQMNSLKTEDTAVYYCARETYYYYYMDVWGKGTTVTVSSGGGGSGGGGSGGGGSGGGGSDIQMTQSPSSLSASVGDRVTITCRASQGISNYLAWYQQKPGKAPKLLIYDAANLEGGVPSRFSGSGSGTDFTLTISSLQPEDFATYYCQQSDIFPPTFGQGTKVEIK | binds | binds | – | – | –
MAdCAM Antibody Table 1 Clone 65 (scFv) scFv: QVQLVQSGAEVKKPGASVKVSCKASGYTFTRHWIHWVRQAPGQGLEWMGWINVKTGGAGYAQKFQGRVTMTRDTSTSTVYMELSSLRSEDTAVYYCARESSGWYGTDVWGQGTTVTVSSGGGGSGGGGSGGGGSGGGGSDIQMTQSPSSLSASVGDRATITCRASQSISNYLAWYQQKPGKAPKLLIYAASSLQSGVPSRFSGSGSGTDFTLTISSLQPEDFATYYCQQSNSFPLTFGGGTKVEIK | binds | binds | – | – | –
MAdCAM Antibody Table 1 Clone 66 (scFv) scFv: EVQLLESGGGLVQPGGSLRLSCAASGFTFSSYWMHWVRQAPGKGLEWVAAISYDGKYKDYEDSVKGRFTISRDNSKNTLYLQMNSLRAEDTAVYYCARENKQWLASFDYWGQGTLVTVSSGGGGSGGGGSGGGGSGGGGSDIQMTQSPSSLSASVGDRVTITCQASQDISNFVNWYQQKPGKAPKLLIYAANLRSGVPSRFSGSGSGTDFTLTISSLQPEDFATYYCQQANSFPVTFGPGTKVDIK | binds | binds | – | – | –
MAdCAM Antibody Table 2 Clone 6 (antibody, human IgG1, V domains shown) VH: EVQLLESGGGLVQPGGSLRLSCAASGFTFNNYAFHWVRQAPGKGLEWVSRINSYGTSTTYADSVKGRFTISRDNSKNTLYLQMNSLRAEDTAVYYCAREGPVAGYWYFDLWGQGTLVTVSS VL: DIQMTQSPSSLSASVGDRVTITCRASQIIGTNLAWYQQKPGKAPKLLIYGASSLQSGVPSRFSGSGSGTDFTLTISSLQPEDFATYYCQQSYRLPFTFGQGTKVEIK | – | – | binds | no binding | no binding
MAdCAM Antibody Table 2 Clone 14 (antibody, human IgG1, V domains shown) VH: QVQLVQSGAEVKKPGSSVKVSCKASGYTFTNYYMHWVRQAPGQGLEWMGGIIPIVDGVKYAQKFQGRVTITADESTSTAYMELSSLRSEDTAVYYCAKGQFTGNYYYGMDYWGQGTLVTVSS VL: DIQMTQSPSSLSASVGDRVTITCQANQDISNYLNWYQQKPGKAPKLLIYRASKLEAGVPSRFSGSGSGTDFTLTISSLQPEDFATYYCQQSSEIPYSFGQGTKVEIK | – | – | – | no binding | no binding
MAdCAM Antibody Table 2 Clone 28 (antibody, human IgG1, V domains shown) VH: EVQLLESGGGLVQPGGSLRLSCAASGFTFSSYAMSWVRQAPGKGLEWVSYISSSSTYTNYADSVKGRFTISRDNSKNTLYLQMNSLRAEDTAVYYCARANSSSWYDWYFDLWGQGTLVTVSS VL: not shown | – | – | – | no binding | no binding
MAdCAM Antibody Table 1 Clone 2 (scFv) scFv: QVQLVQSGAEVKKPGASVKVSCKASGYPFIGYYLHWVRQAPGQGLEWMGIINPSGGSTSYAQKFQGRVTMTRDTSTSTVYMELSSLRSEDTAVYYCAREGRLSYGMDAWGQGTLVTVSSGGGGSGGGGSGGGGSGGGGSDIQMTQSPSSLSASVGDRVTITCRASQSISSYLAWYQQKPGKAPKLLIYGASTLESGVPSRFSGSGSGTDFTLTISSLQPEDFATYYCQQTWGPPFTFGQGTKLEIK | binds | binds | – | – | –
MAdCAM Antibody Table 1 Clone 3 (scFv) scFv: QVQLVQSGAEVKKPGASVKVSCKASGYPFIGQYLHWVRQAPGQGLEWMGIINPSGGSTSYAQKFQGRVTMTRDTSTSTVYMELSSLRSEDTAVYYCAREGRLSYGMDAWGQGTLVTVSSGGGGSGGGGSGGGGSGGGGSDIQMTQSPSSLSASVGDRVTITCRASQSISSYLAWYQQKPGKAPKLLIYGASTLESGVPSRFSGSGSGTDFTLTISSLQPEDFATYYCQQTWGPPFTFGQGTKLEIK | binds | binds | – | – | –
MAdCAM Antibody Table 1 Clone 4 (scFv) scFv: QVQLVQSGAEVKKPGASVKVSCKASGGTFSSYAISWVRQAPGQGLEWMGSINPSGDTTSYAQKFQGRVTMTRDTSTSTVYMELSSLRSEDTAVYYCAKDKAQWLVGYFDYWGQGTLVTVSSGGGGSGGGGSGGGGSGGGGSDIQMTQSPSSLSASVGDRVTITCQASQDISNSLNWYQQKPGKAPKLLIYAASSLQSGVPSRFSGSGSGTDFTLTISSLQPEDFATYYCQQSYSSVITFGQGTKVEIK | binds | binds | – | – | –
MAdCAM Antibody Table 1 Clone 5 (scFv) scFv: EVQLLESGGGLVQPGGSLRLSCAASGFTFSSYWMHWVRQAPGKGLEWVSSISPGGSNIDYADSVKGRFTISRDNSKNTLYLQMNSLRAEDTAVYYCAREVQLSHYDYWGQGTLVTVSSGGGGSGGGGSGGGGSGGGGSDIQMTQSPSSLSASVGDRVTITCRASQGISNSLAWYQQKPGKAPKLLIYGASSLQSGVPSRFSGSGSGTDFTLTISSLQPEDFATYYCQQANSFPFTFGQGTKVEIK | binds | binds | – | – | –
MAdCAM Antibody Table 1 Clone 7 (scFv) scFv: QVQLVQSGAEVKKPGASVKVSCKASGYTFTGYHIHWVRQAPGQGLEWMGIINPSGGSTIYAQKFQGRVTMTRDTSTSTVYMELSSLRSEDTAVYYCAKDWSSWYLGPFDYWGQGTLVTVSSGGGGSGGGGSGGGGSGGGGSDIQMTQSPSSLSASVGDRVTITCRASQNISSSLNWYQQKPGKAPKLLIYAASSLQSGVPSRFSGSGSGTDFTLTISSLQPEDFATYYCQQSYTTPYTFGQGTKVEIK | binds | binds | – | – | –
MAdCAM Antibody Table 1 Clone 11 (scFv) scFv: QVQLVQSGAEVKKPGASVKVSCKASGYTFTTYYMHWVRQAPGQGLEWMGGFDPEDGETIYAQKFQGRVTMTRDTSTSTVYMELSSLRSEDTAVYYCARHAVAGAVGAGYYYYGMDVWGQGTMVTVSSGGGGSGGGGSGGGGSGGGGSDIQMTQSPSSLSASVGDRVTITCRASESISNWLAWYQQKPGKAPKLLIYAASTLQSGVPSRFSGSGSGTDFTLTISSLQPEDFATYYCQQSYSVPFTFGPGTKVDIK | binds | no binding | – | – | –
